Positions of bridges follow the written chain, without caps; N, C: chain ends. Non-standard residues stand in square brackets, D forms with d. Primed or numbered codes have the meaning given here. No end group written: not given here. *: point of attachment. mXylyl(3) = bridging moiety between the two residues given in brackets; Lys(ivDde) = CC(C)CC(NCCCC[C@H](N)C(=O)O)=C1C(=O)CC(C)(C)CC1=O; mXylyl″ = bridging moiety between the two marked residues; Ala(1H-tetrazol-5-yl) = N[C@@H](Cc1nnn[nH]1)C(=O)O; Trp(5-F) = N[C@@H](Cc1c[nH]c2ccc(F)cc12)C(=O)O; Trp(7-aza) = N[C@@H](Cc1c[nH]c2ncccc12)C(=O)O; mXylyl(4) = bridging moiety between residues; Trp(1-Me) = Cn1cc(C[C@H](N)C(=O)O)c2ccccc21; Palmitoyl = CCCCCCCCCCCCCCCC(=O)*; NMeD = CN[C@@H](CC(=O)O)C(=O)O; Chg = N[C@H](C(=O)O)C1CCCCC1; Phg = N[C@H](C(=O)O)c1ccccc1; Tle = CC(C)(C)[C@H](N)C(=O)O; NMeS = CN[C@@H](CO)C(=O)O; Nva = CCC[C@H](N)C(=O)O; Mpa = O=C(O)CCS
B1: R3194 (peptide)
peptide: Ac-KVERFD[NMeD][Tle]Y[Trp(7-aza)]EYP[Chg]K(Palmitoyl)-NH2
modifications: lactam 1-6
SMILES: CCCCCCCCCCCCCCCC(=O)NCCCC[C@H](NC(=O)[C@@H](NC(=O)[C@@H]1CCCN1C(=O)[C@H](Cc1ccc(O)cc1)NC(=O)[C@H](CCC(=O)O)NC(=O)[C@H](Cc1c[nH]c2ncccc12)NC(=O)[C@H](Cc1ccc(O)cc1)NC(=O)[C@@H](NC(=O)[C@H](CC(=O)O)N(C)C(=O)[C@@H]1CC(=O)NCCCC[C@H](NC(C)=O)C(=O)N[C@@H](C(C)C)C(=O)N[C@@H](CCC(=O)O)C(=O)N[C@@H](CCCNC(=N)N)C(=O)N[C@@H](Cc2ccccc2)C(=O)N1)C(C)(C)C)C1CCCCC1)C(N)=O
B2: R3192 (peptide)
peptide: Ac-KVERFD[NMeD][Tle]Y[Trp(7-aza)]EYP[Chg]K-NH2
modifications: lactam 1-6
SMILES: CC(=O)N[C@H]1CCCCNC(=O)C[C@@H](C(=O)N(C)[C@@H](CC(=O)O)C(=O)N[C@H](C(=O)N[C@@H](Cc2ccc(O)cc2)C(=O)N[C@@H](Cc2c[nH]c3ncccc23)C(=O)N[C@@H](CCC(=O)O)C(=O)N[C@@H](Cc2ccc(O)cc2)C(=O)N2CCC[C@H]2C(=O)N[C@H](C(=O)N[C@@H](CCCCN)C(N)=O)C2CCCCC2)C(C)(C)C)NC(=O)[C@H](Cc2ccccc2)NC(=O)[C@H](CCCNC(=N)N)NC(=O)[C@H](CCC(=O)O)NC(=O)[C@H](C(C)C)NC1=O
B3: R3041 (peptide)
peptide: Ac-YEN[Tle]YWEYP[Phg][Nva]-NH2
SMILES: CCC[C@H](NC(=O)[C@@H](NC(=O)[C@@H]1CCCN1C(=O)[C@H](Cc1ccc(O)cc1)NC(=O)[C@H](CCC(=O)O)NC(=O)[C@H](Cc1c[nH]c2ccccc12)NC(=O)[C@H](Cc1ccc(O)cc1)NC(=O)[C@@H](NC(=O)[C@H](CC(N)=O)NC(=O)[C@H](CCC(=O)O)NC(=O)[C@H](Cc1ccc(O)cc1)NC(C)=O)C(C)(C)C)c1ccccc1)C(N)=O
B4: R3110 (peptide)
peptide: Ac-YEN[Tle]Y[Trp(1-Me)]EYP[Phg][Nva]-NH2
SMILES: CCC[C@H](NC(=O)[C@@H](NC(=O)[C@@H]1CCCN1C(=O)[C@H](Cc1ccc(O)cc1)NC(=O)[C@H](CCC(=O)O)NC(=O)[C@H](Cc1cn(C)c2ccccc12)NC(=O)[C@H](Cc1ccc(O)cc1)NC(=O)[C@@H](NC(=O)[C@H](CC(N)=O)NC(=O)[C@H](CCC(=O)O)NC(=O)[C@H](Cc1ccc(O)cc1)NC(C)=O)C(C)(C)C)c1ccccc1)C(N)=O
B5: R3119 (peptide)
peptide: Ac-YENY[dW]EYP[Phg][Nva]-NH2
SMILES: CCC[C@H](NC(=O)[C@@H](NC(=O)[C@@H]1CCCN1C(=O)[C@H](Cc1ccc(O)cc1)NC(=O)[C@H](CCC(=O)O)NC(=O)[C@@H](Cc1c[nH]c2ccccc12)NC(=O)[C@H](Cc1ccc(O)cc1)NC(=O)[C@H](CC(N)=O)NC(=O)[C@H](CCC(=O)O)NC(=O)[C@H](Cc1ccc(O)cc1)NC(C)=O)c1ccccc1)C(N)=O

Biological target: T1, human C5 protein (human, UniProt P01031 19-673; P01031 678-1676)
Assay: cell-based or functional assay

Going from B1 to [Mpa]VERFC[NMeD][Tle]Y[Trp(7-aza)]EYP[Chg]K(Palmitoyl) (bridge 1-6; also: cyclo(1,6) between Cys1 and Cys6, ring kind not given here) [R3198], the “Avg. IC50, hemolysis assay with C5 depleted sera” value (shortened to “Avg. IC50, hemolysis assay”) rises from 15.5 nM to 142 nM (9.2-fold).

Going from [Mpa][dA]ERFC[NMeD][Tle]Y[Trp(7-aza)]EYP[Chg]K(Palmitoyl) (bridge 1-6; also: cyclo(1,6) between Cys1 and Cys6, ring kind not given here) [R3199] to B2, the “Avg. IC50, hemolysis assay” value falls from 112 nM to 1.5 nM (75-fold).

Compared with Ac-KVERFD[NMeD][Tle]YWEYP[Chg]K(Palmitoyl) (lactam 1-6) [R3195], Ac-KVERFD[NMeD][Tle]YWEYP[Chg][Lys(ivDde)] (lactam 1-6) [R3197] is 16-fold lower in “Avg. IC50, hemolysis assay” value: 62.5 nM for the first, 4 nM for the second.

Ac-KVERFD[NMeD][Tle]YWEYP[Chg]K (lactam 1-6) [R3196] was tested, and the “Avg. IC50, hemolysis assay” value was 3 nM.

Biological target: T1, human C5 protein
Assay: cell-based or functional assay
Remark: another data set of the same source

Compared with B3, B4 is 41-fold higher in “Avg. IC50 (nM), human hemolysis assay” value: 71.3 nM for the first, 2940 nM for the second.

Ac-[Nva]CYNN[Tle]ECEYP[Phg][Tle]-NH2 (linker 2-8 via mXylyl(3)) [R3129] and Ac-[Nva]CYEN[Tle]YCEYP[Phg][Nva]-NH2 (linker 2-8 via mXylyl″) [R3017] cannot be ordered by “Avg. IC50 (nM), human hemolysis assay” value: over 100000 nM for the first, over 100000 nM for the second.

Ac-[Nva]CYNN[Tle]ECEYP[Phg][Tle]-NH2 (cysteine pairing not given here) [R3128] and B5 cannot be ordered by “Avg. IC50 (nM), human hemolysis assay” value: over 100000 nM for the first, over 100000 nM for the second.

Biological target: T1, human C5 protein
Assay: cell-based or functional assay
Remark: another data set of the same source

Ac-[Nva]C[Phg]T[Trp(1-Me)]EY[NMeS]AC[Nva]-NH2 (linker 2-10 via mXylyl(3)) [R3109] and Ac-[Nva]C[Phg]TW[Ala(1H-tetrazol-5-yl)]Y[NMeS]HC[Nva]-NH2 (linker 2-10 via mXylyl(3)) [R3131] cannot be ordered by “Avg. IC50, human hemolysis assay” value: over 100 µM for the first, over 100 µM for the second.

First: B3
Second: Ac-[Nva]C[Phg]T[dW]EY[NMeS]HC[Nva]-NH2 (linker 2-10 via mXylyl(3)) [R3132]
The “Avg. IC50, human hemolysis assay” value of the first is lower: 0.0713 µM for the first, over 100 µM for the second.

Going from Ac-[Nva]C[Phg]TAEY[NMeS]HC[Nva]-NH2 (linker 2-10 via mXylyl(4)) [R3034] to B4, the “Avg. IC50, human hemolysis assay” value falls from over 50 µM to 2.94 µM.

Ac-[Nva]CYNN[Tle]ECEYP[Phg][Tle]-NH2 (linker 2-8 via mXylyl(3)) [R3129] and Ac-[Nva]CYEN[Tle]YCEYP[Phg][Nva]-NH2 (linker 2-8 via mXylyl″) [R3017] cannot be ordered by “Avg. IC50, human hemolysis assay” value: over 100 µM for the first, over 100 µM for the second.

First: Ac-[Nva]C[Phg]TFEY[NMeS]AC[Nva]-NH2 (linker 2-10 via mXylyl(3)) [R3092]
Second: Ac-[Nva]C[Phg]TWEY[NMeS]AC[Nva]-NH2 (linker 2-10 via mXylyl(3)) [R3091]
The “Avg. IC50, human hemolysis assay” value of the first is higher: over 50 µM for the first, 0.483 µM for the second.

Ac-[Nva]C[Phg]T[Trp(5-F)]EY[NMeS]AC[Nva]-NH2 (linker 2-10 via mXylyl(3)) [R3088] and Ac-[Nva]CYNN[Tle]ECEYP[Phg][Tle]-NH2 (cysteine pairing not given here) [R3128] cannot be ordered by “Avg. IC50, human hemolysis assay” value: over 100 µM for the first, over 100 µM for the second.

In the case of B5, the “Avg. IC50, human hemolysis assay” value is reported as over 100 µM.

Biological target: T1, human C5 protein
Assay: cell-based or functional assay
Remark: another data set of the same source

Ac-[Nva]C[Phg]T[Trp(1-Me)]EY[NMeS]AC[Nva]-NH2 (linker 2-10 via mXylyl(3)) [R3109] and Ac-[Nva]C[Phg]TW[Ala(1H-tetrazol-5-yl)]Y[NMeS]HC[Nva]-NH2 (linker 2-10 via mXylyl(3)) [R3131] cannot be ordered by “Avg. IC50 (nM), human hemolysis assay” value: over 100000 nM for the first, over 100000 nM for the second.

Ac-[Nva]C[Phg]T[dW]EY[NMeS]HC[Nva]-NH2 (linker 2-10 via mXylyl(3)) [R3132] and Ac-[Nva]C[Phg]TAEY[NMeS]HC[Nva]-NH2 (linker 2-10 via mXylyl(4)) [R3034] cannot be ordered by “Avg. IC50 (nM), human hemolysis assay” value: over 100000 nM for the first, over 50000 nM for the second.

Compared with Ac-[Nva]C[Phg]TFEY[NMeS]AC[Nva]-NH2 (linker 2-10 via mXylyl(3)) [R3092], Ac-[Nva]C[Phg]TWEY[NMeS]AC[Nva]-NH2 (linker 2-10 via mXylyl(3)) [R3091] is lower in “Avg. IC50 (nM), human hemolysis assay” value: over 50000 nM for the first, 483 nM for the second.

For Ac-[Nva]C[Phg]T[Trp(5-F)]EY[NMeS]AC[Nva]-NH2 (linker 2-10 via mXylyl(3)) [R3088], the “Avg. IC50 (nM), human hemolysis assay” value was over 100000 nM.

Reference: US20210283212A1 (RA PHARMACEUTICALS, published 2021)
